Measurements reported in PMC5045189, “High Resolution Mapping of Bactericidal Monoclonal Antibody Binding Epitopes on Staphylococcus aureus Antigen MntC” (PLoS Pathogens, 2016).

Legend:
[1] = molecular target: T1, Staphylococcus aureus manganese transporter protein MntC, wild type, recombinant (Staphylococcus aureus); experiment: ITC; conditions: both partners purified
T1 construct: also called wild type MntC; full length MntC; source: recombinant; cloning, expression and purification previously described [3]
T1 chain: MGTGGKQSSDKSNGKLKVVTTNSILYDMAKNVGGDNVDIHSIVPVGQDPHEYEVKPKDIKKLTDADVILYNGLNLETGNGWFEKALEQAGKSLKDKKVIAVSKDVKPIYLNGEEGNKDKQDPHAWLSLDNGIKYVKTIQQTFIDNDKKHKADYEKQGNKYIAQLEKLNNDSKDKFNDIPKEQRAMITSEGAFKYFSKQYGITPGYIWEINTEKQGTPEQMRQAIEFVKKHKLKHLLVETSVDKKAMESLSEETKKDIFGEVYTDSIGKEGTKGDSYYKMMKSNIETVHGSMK

[2] = molecular target: T2, Histidine-tagged wild-type MntC (pET-19b) (Staphylococcus aureus); experiment: BLI; conditions: both partners purified
T2 construct: source: E. coli BL21(DE3), purified (HisPur Ni-NTA Agarose, size-exclusion chromatography); not shown: His-tag, N-terminal, kept
T2 chain: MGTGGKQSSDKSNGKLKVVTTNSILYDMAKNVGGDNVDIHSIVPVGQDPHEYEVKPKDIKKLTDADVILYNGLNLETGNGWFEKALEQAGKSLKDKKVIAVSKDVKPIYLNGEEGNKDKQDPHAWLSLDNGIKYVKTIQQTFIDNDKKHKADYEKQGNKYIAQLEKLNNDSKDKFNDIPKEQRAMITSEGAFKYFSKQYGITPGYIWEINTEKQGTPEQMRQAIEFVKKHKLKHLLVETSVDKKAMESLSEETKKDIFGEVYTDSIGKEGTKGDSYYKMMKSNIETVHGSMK

B1: monoclonal antibody mAB 305-78-7 (intact antibody, interference group 2) (antibody, V domains shown)
VH: QVQLQQSGAELARPGASVKMSCKASGYTFTRYTMHWVQQRPGQGLEWIGYINPSSDYTKYNQKFKDKATMTADKSSSTAYMQLSSLTSEDSAVYYCARKEDVGYWYFDFWGTGTTVTVSS
VL: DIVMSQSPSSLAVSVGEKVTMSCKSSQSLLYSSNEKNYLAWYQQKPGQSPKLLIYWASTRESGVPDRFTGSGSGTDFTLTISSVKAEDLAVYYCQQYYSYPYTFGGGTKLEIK
notes: source: generation previously described [3]
- Kd [1]: 1.2 nM
- dH [1]: -19.9 kcal/mol
- Kd [2]: 1.2 nM
- koff [2]: 0.00024 s⁻¹
- kon [2]: 220000 M⁻¹ s⁻¹
